Results taken from patent publication US20230165938A1.

B1: human rhodopsin kinase (G protein receptor kinase 1) (enzyme, UniProt Q15835 1-560, looked up)
chain: MDFGSLETVVANSAFIAARGSFDGSSSQPSRDKKYLAKLKLPPLSKCESLRDSLSLEFESVCLEQPIGKKLFQQFLQSAEKHLPALELWKDIEDYDTADNDLQPQKAQTILAQYLDPQAKLFCSFLDEGIVAKFKEGPVEIQDGLFQPLLQATLAHLGQAPFQEYLGSLYFLRFLQWKWLEAQPMGEDWFLDFRVLGKGGFGEVSACQMKATGKLYACKKLNKKRLKKRKGYQGAMVEKKILMKVHSRFIVSLAYAFETKADLCLVMTIMNGGDIRYHIYNVNEENPGFPEPRALFYTAQIICGLEHLHQRRIVYRDLKPENVLLDNDGNVRISDLGLAVELLDGQSKTKGYAGTPGFMAPELLQGEEYDFSVDYFALGVTLYEMIAARGPFRARGEKVENKELKHRIISEPVKYPDKFSQASKDFCEALLEKDPEKRLGFRDETCDKLRAHPLFKDLNWRQLEAGMLMPPFIPDSKTVYAKDIQDVGAFSTVKGVAFDKTDTEFFQEFATGNCPIPWQEEMIETGIFGELNVWRSDGQMPDDMKGISGGSSSSSKSGMC

What was measured:
Test in all cases: cell-based or functional assay
[1] = molecular target: wildtype human rod opsin (human) (UniProt P08100)
[2] = molecular target: phosphonull Rod opsin 6A mutant (human) (UniProt P08100)
[3] = molecular target: wildtype human rod opsin (human) (UniProt P08100); remark: listed apart in the source

Molecule	Response decay (best fit Toff) of the light-driven BRET G protein (Go) activation response in Hek293T cells, arrestin co-expressed without GRK1, relative to RodWT alone (% of RodWT level) [1]	Response decay rate of the BRET G protein activation light response, arrestin and GRK1 both co-expressed with RodWT, relative to RodWT alone [1]	Toff of the BRET G protein activation light response, arrestin and GRK1 both co-expressed with RodWT (RodWT alone 166.16) [1]	Response amplitude (A) of the BRET G protein activation light response, GRK1 only co-expressed with Rod6A (scaling factor A) [2]	Response amplitude (A) of the BRET G protein activation light response, GRK1 (or GRK1+Arr) co-expressed with RodWT (% of RodWT amplitude) [3]
wildtype human visual arrestin (from UniProt P10523 1-405)	90	2.5 x faster	65.6 s		
B1				0.42	25
